From a protein production outcome set (Wang et al. 2014)

Assay: label from the status in PepcDB records

| Sequence | protein production |
| --- | --- |
| MSVNDQITHIGKTLSTTASAFLNYQKSNSNTQDVLTNNGPYKNLLSNTVNNASSTSYFYKRTEHGRFVKNASNTFEDIYSKTRRGDVFRNKFTDNKTCFRMLTYISDDLLNEIPTKEGLKSDADGKLLTEGGENENLRKNASKKETSLFQGFKSYLPIAELAIENTERLNYDTNGTSGTVGAKDVMSKTNERDEIHTELPNFQDSFLIPPGVETKKISSSYSPSALKSFSQTLVNSLEFLNIQKNSTLSEIRDIEVEVENLRQKKEKLLGKIANIEQNQLLLEDNLKQIDDRLDFLEEYGLEVIEANSDENAEDDGMSERKALKNDAIRNEGVTTESISSEASNLPPRRRQQLRDDNSLNRLGAFYSKSKKRHRKSFPTFQQLYEPGTKIGSIMSTHDDFLTCLDFDAPFGTLCTAGYLDHTVKIWDLSKQNKIGELAGHLATINCMQINRDYGTLVTGGRDAALKLWNLNLAQQLYQETQNLTSPTNHIDSPCVHTFEAHTDEVTALSLDPSFLVSGSQDRTIRQWDLRSGKCLQTIDLSFANVLTTSTNVDLSKSTLLTQRNERPSIGALQSFDAALATGTKDGVVRLWDLRSGKVIRTLKGHTDAITSLKFDSACLVTGSYDRTVRIWDLRTGLLNKFHAYSAPVLSLDLFQENAAVVVADEPSVQIYDSEKDESWSCVEQGNETSVSTVKYKENYMVEGRENGDVNIWAV | failed |
| MASSAVSLQSISMTTLNNLSCNQQFHRSSLLGSSKSFQNLGISSNGSDFSYPSSFTAKKNLTASRALSQNGNIENPRPSKVQELSVYEINELDRHSPKILKNAFSLMFGLGDLVPFTNKLYTGDLKKRVGITAGLCVVIEHVPEKKGERFEATYSFYFGDYGHLSVQGPYLTYEDSFLAITGGAGIFEGAYGQVKLQQLVYPTKLFYTFYLKGLANDLPLELTGTPVPPSKDIEPAPEAKALEPSGVISNYTN | not failed |
| MTGPTTDADAAVPRRVLIAEDEALIRMDLAEMLREEGYEIVGEAGDGQEAVELAELHKPDLVIMDVKMPRRDGIDAASEIASKRIAPIVVLTAFSQRDLVERARDAGAMAYLVKPFSISDLIPAIELAVSRFREITALEGEVATLSERLETRKLVERAKGLLQTKHGMTEPDAFKWIQRAAMDRRTTMKRVAEVVLETLGTPKDT | not failed |
| MEWQAEQAYNHLPPLPLDSKLAELAETLPILKACIPARAALAELKQAGELLPNQGLLINLLPLLEAQGSSEIENIVTTTDKLFQYAQEDSQADPMTKEALRYRTALYQCFTQLSNRPLCVTTALEICSTIKSVQMDVRKVPGTSLTNQATGEVIYTPPAGESVIRDLLSNWEAFLHNQDDVDPLIKMAMAHYQFEAIHPFIDGNGRTGRVLNILYLIDQQLLSAPILYLSRYIVAHKQDYYRLLLNVTTQQEWQPWIIFILNAVEQTAKWTTHKIAAARELIAHTTEYVRQQLPKIYSHELVQVIFEQPYCRIQNLVESGLAKRQTASVYLKQLCDIGVLEEVQSGKEKLFVHPKFVTLMTKDSNQFSRYAL | not failed |
| MQPLLRTAGFSLLLLAASCGVGAQPEPQNSRLTAIKMDGELPARAAIAGLFAELDFQQATQSYLWALPLVSYAQWQGEFRDKLHAGNGDLMVLESYEDKLGVITANATTPYILGFVDLNQTGPMVVELPPGPTAGGVGDFWQRAITDMGQTGPDQGKGGKYLVLPPGHPEPSDADQYYLAKSQTMNVLVGFRVLDPDPAKGKALVQQFKMYPYAQRATPPATRLLSPGGKPWSGTQPRGMAYWERLHQIIQQEPVNERDRFYMAMLASLGIEKDKPFNPNEHQRQALEQGARMGELIAQANTFAKRFADAQYWPDRQWDKVLNIADPSQRVAYYDQLWERSAWFYEAVTNTKGMVSKTPGLGQTYLGAYTDHNGQWLDGGKHYRLHLGSNPPARQFWSLTVYDSASRCLIDNPQRKADLSSRQDLKKNPDGSLDLYFGPSAPKGLESNWVQTLPGKHWFSYFRLYAPTEAYFDKRWKLDDITLVQ | failed |
| MRIDAHHHLWDLSVRDQPWTSDVPALRRTFTAAELRPALERNAIDATVVVQTIAVPQETPELLALTCTDPQVRAVVGWTDLTEPGIADRLAELREQPGGSALVGIRHGIQDETDPQWPARPEVRRGITSVAAAGLVYDLLVRPDQLPSAVRAVRELPDVRFVLDHAGNPVVSPDGLVSWTALLTDLAECPNVTVKLSGLVTRTGGDPAAALRPYADVLFETMGPDRLMYGSDWPVCLLAAEYDEVVAVAESLTEELSADEREAVFGTTAARWYGIPS | failed |
| MIGDMNELLLKSVEVLPPLPDTVSKLRKYVSEANSNIETMKVAEIISSDPLMTAKLLQLANSPYYGFTREITTINQVITLLGVGNIINIVMADSIRDNFKIDVSPYGLNTQNFLKTCNEEATFIANWLNDEDKKLSHLLVPCAMLLRLGIVIFSNFLIQNHKDKDFLAFLNKNENLALAENEFLGVDHISFLGFLLHRWNFDDVLIESICFVRTPHAAREKVKKSAYALAITDHLFAPHDGSSPFNAKAAVALLKEAKTQGINFDLNNLLSKLPNKAKENLNKED | not failed |
| MIMRQLAHFKFFDTLSKKMVAGFIILILIGTVLLSLPWATPANVHTSLIDVLFTSASATCITGLTVVNTAAHWTTFGQLVILVLSEVGALGYMTFAVLLFNIMRRQIGLSTQLMVKASLNLERLSDTKSVMKYVVGLSLLFQLGGLGLLAIDFVPRFGWRHGLYVSLYHAVMSFCNAGFDVFGDSLQGFRNDPYVLTVTMILIIAGGLGFLVWRDVLLYHTRKRLTLNSKLTLLTTFSLFVIGFVLLLITERDLELLPTGMSWVNRTINTLFLSVTPRTAGLITMPTQGLQAGSLLVIMILMFVGGTPGSTAGGIKTTTFGVLMFQSIAQLRGRRDVEFSHRRFSQENINRALMLIFLASIVLTVATLILTQTEKIPKGFGLEYVLFEVLSAFGTVGLSLGLTPNLTLIGKIVIMMLMFIGRVGIFTSLYALSRRQARVNLIRYPAENILIG | failed |
| MSGPRAGFYRQELNKTVWEVPQRLQGLRPVGSGAYGSVCSAYDARLRQKVAVKKLSRPFQSLIHARRTYRELRLLKHLKHENVIGLLDVFTPATSIEDFSEVYLVTTLMGADLNNIVKCQAGAHQGARLALDEHVQFLVYQLLRGLKYIHSAGIIHRDLKPSNVAVNEDCELRILDFGLARQADEEMTGYVATRWYRAPEIMLNWMHYNQTVDIWSVGCIMAELLQGKALFPGSDYIDQLKRIMEVVGTPSPEVLAKISSEHARTYIQSLPPMPQKDLSSIFRGANPLAIDLLGRMLVLDSDQRVSAAEALAHAYFSQYHDPEDEPEAEPYDESVEAKERTLEEWKELTYQEVLSFKPPEPPKPPGSLEIEQ | failed |
| MEGVELELERRSKFLNSLIQKKKAKEQQDQKDEFNVRVRASDMPLPQQNRAFSLSREILNATPGKADNKRLAHALKKDFDSAYGPAWHCIVGTSFGSYVTHSTGGFLYFQIDKVYVLLFKTAVEPLDQK | failed |
| MSQFTPHFTYRNVALALLVSTVLNGCATKGFRDADDQAERDIRTAEQLHGLSLKQPSSPSLVWVDEPWVNPRPIRVSARAQQVKLPPCSLTLIIDGSLSLYEVGQRITRSCGFPVVITPDAMSALSGSASQGGVGATRAIQGALPRPDEGGRPALGSIGGVTSTQSFSPNIGAGLITDISWEGEPLGGALDQITSRLGLNWKFENNQVVLYYLDTRTYRLKVLNAETAMNSNLTGTSSSTAGGDSSSVSGSQNSGQSTSVKLESKIHNDIGQSIKSMVSSSGSWHLSGSTGELVVTDVPQVLDRVESYIDSLNVRMNRMVKLMVSVYSVQRKGSSQTSLDWSVVGKRLDRFGLTLAGTPTATTAVSSAGINVVDGKFAGTTALFRALETQGKVSVVMAHEATTTNLVPAPFQIAGQMVYLRSQKTSVSENYATTDMEPGSITTGTQMTLLPDIRDEGDIQLQFNFSHSDPAQLRKESSKDGNTKMEMPYTTVRSLSERVNLKPGQTLIVSGYNSRNLTASREGAFDPDVTVAGGGKSSETDDVTLIIAVTPVLM | failed |
| MFANKILTEKDTDQIRFSILASGSSGNATLVETGDQKILIDCGLSGKKMEGLFAQVGRDMNDLDAILITHEHSDHIKGLGVLARKYKLPIYANAKTWKAMDNMIGEVSSDQKFQFDMETVKNFGSMQVESFGVSHDAIEPMFYIFHKGNKKFVMITDTGYVSDRMKGHIAGADAYLFESNHDVEMLRMGRYPWNVKRRILGDEGHVSNEDAAIAMSEVITDQTKRIYLGHLSKDNNMKELARMSVTQTLMAEGIDVGGKLEIFDTDPDNATSIFTILEHHHHHH | failed |
| MVFSGPASPGLTLAPLRRGGIDPCYRVDAAGAIWRTSLMPSGPVTARITRAATDAADCQAWGEGADEFIDRLPALLGVDDDASDFAPAEPTIAKARRQVPHLRLGRTGRMLEALIPAIIEQRVYGLDAWRAWRALVTKFGTPAPGPAPDGMRVVPSAEVWRRIPSWEFHRANVDPGRARTIVMCAQRADSLERLTHERAAVTLRSLPGVGEWTAAETMQRVFGDADALSAGDYHLATLVGQALTGEPVDDAGMVELLEPMRPHRHRAVRLLEASGMFVYRRRGARQAIPKLRTLLEHHHHHH | failed |
| MVKELIEQGANVTGLVRDHVPQSNLYQGEHIKKMNIVRGSLEDLAVIERALGEYEIDTVFHLAAQAIVGVANRNPISTFEANILGTWNILEACRKHPLIKRVIVASSDKAYGDQENLPYDENMPLQGKHPYDVSKSCADLISHTYFHTYGLPVCITRCGNLYGGGDLNFNRIIPQTIQLVLNGEAPEIRSDGTFVRDYFYIEDAVQAYLLLAEKMEENNLAGEAFNFSNEIQLTVLELVEKILKKMNSNLKPKVLNQGSNEIKHQYLSAEKARKLLNWTPAYTIDEGLEKTIEWYTEFFKK | failed |
| MTKAMTAHDYLPLIEKIRKRISSWTGRFLSYCGRLQLIKSVLMSITNFWSSAFRLPGNCMKEIERLCSAFLWSGPDLKTHNAKIAWSKVCLPMCEGGLGLRPLKEINTVCGLKLIWRLLASQTSLWGQWVQTYLIRRNNFWAIKASSYQGSWMWRKLLTLRDVARSFHKKEIHNGRNTSFWYDHWSSMGTLVDVLGARGCIDLGITTTTNMENVFTTRRSRKHRGDLLVRIEAEIEAAKTRHQPDIEDIDLWKPSTGYKKTFSTRETWKLIRMAEPVCEWAKGVWFPKPHQNLLSLLGWVCTIVFQQGTECKSGTAKLTLLAFSAKTLWKQEITYSSTVTTPIKFGKL | failed |
| MYPEKEYEELIKKIKTKVKEELNKNSKANVSGLNLDTAKRLADAAVKKAGEMGVNVAVAVMDIHGNMILFNRMDDSVLAAIEVAPKKAYTSAALRIPSSEVLKGGFDKLVETMEGKIAAFGGGLPVRSNGIFLGALGVSGGTSEEDIKIAEYAVNAVFG | failed |
| MEQRLLNANERSTYGKNAAVKMRKAGRIPAVMYDRHGKSVPIDVDEREFMKLFKLVTESTIVTLNAAGKDYEVFIKDFQHDIVSDKIKHIDFYEVERGKTLRTKVKIRLEGSPEGVRHGGILETGITELELECLPKDLPARIIVDVSALDVNQSLHVRDIKLPEAVTVLTSDDITVAAIKFAAAESTTPAATEGEETEAAAAAPEPAAEDK | failed |
| MEILQFIGYGNMAQAILEGAHEILSKRFILEITGRNPEKIAPFLQEKNIQAQIVPYKDAIDIHQKFVFLLFKPYNLKDFNYQGQAKSVLSALAGVGFKALSDAIDSLHYLKCMPNIASKFALSSTAVCEKSPMPLISQKALSVIESFGNCVRVGHEELVDASVATNGSALAFLSLVANSLKDAGIREGLNARGSLELVKMSFKGFAKLLEKERPEMIIEQICTPKGATIEGLSVLEKKGVRGAFIEACHKSVKKMRL | failed |
| AVYLDCRDLQRTWEVIFNLFEPELQEFTRKVPINHIRQLVEHKHAKPVFSSPIVEGETVMVSCQFTCMEKTIKVYGFGSNKDQAKLSAAKHALQQLSKCDA | failed |
